In experiment [1] the target is T1, TGF-β1 (Homo sapiens, UniProt P01137).
T1 construct: purchased R&D Systems (Minneapolis, Minn.)
To be noted: previously reported in references 31 and 33; mean ± S.E., n=4; read-out: IC50, 125I-TGF-β1 binding to immobilized α2M-MA; cited from earlier work.

For experiment [2], the target named is T2, 125I-TGF-β1 binding to immobilized FP3 (Homo sapiens, UniProt P01023+P01137).
T2 construct: corresponding to amino acids 614-797 and 798-1082, respectively; made in house
T2 sequence (P01023 with tags, fused parts or gaps limits assumed): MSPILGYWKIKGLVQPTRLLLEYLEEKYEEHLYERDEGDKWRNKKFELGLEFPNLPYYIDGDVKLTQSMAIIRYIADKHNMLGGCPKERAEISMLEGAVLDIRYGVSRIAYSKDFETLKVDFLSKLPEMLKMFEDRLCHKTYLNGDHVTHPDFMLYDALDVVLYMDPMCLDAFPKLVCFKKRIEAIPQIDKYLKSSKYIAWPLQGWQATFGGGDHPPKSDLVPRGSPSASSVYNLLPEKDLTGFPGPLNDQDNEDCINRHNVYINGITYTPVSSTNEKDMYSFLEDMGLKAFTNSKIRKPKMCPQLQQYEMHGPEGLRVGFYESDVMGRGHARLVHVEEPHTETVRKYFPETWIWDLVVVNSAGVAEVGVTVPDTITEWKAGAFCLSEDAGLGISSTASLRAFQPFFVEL
T2 sequence (P01137 279-390 limits assumed): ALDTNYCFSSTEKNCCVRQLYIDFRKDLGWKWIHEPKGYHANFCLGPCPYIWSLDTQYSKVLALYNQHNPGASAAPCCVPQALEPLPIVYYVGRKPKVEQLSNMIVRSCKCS
The experiment is described as follows: Competition for 125I-TGF-β1 binding to PVDF-immobilized FP3. To be noted: unlabeled TGF-β1 0.2 μM. How it is done:
(§1) To block free sulfhydryls, some samples were treated with 5 mM IAM for 2 h at 25° C. Equivalent amounts of each protein ([…]) were subjected to SDS-PAGE on 10% slabs. IAM-treated GST-α2 M-peptide fusion proteins were subjected to SDS-PAGE as well. All samples were electro-transferred to PVDF membranes. The membranes were blocked with 5% milk and 0.1% Tween 20 in PBS for 12 h at 4° C. and then rinsed with 0.1% Tween 20 in PBS (PBS-T). […] Biophys. Res. Commun. […] NGF-β was radioiodinated with Iodogen, to a specific activity of 2-5 μCi/μg, using the method recommended by the manufacturer. […] After washing the membranes with PBS-T, bound radioligands were detected by Phosphorlmager analysis.

In a further experiment the test system is FBHE cells. The experiment is described as follows: Endothelial cell proliferation assay, TGF-β alone. The experiment is classed as cell-based, bovine. To be noted: TGF-β 10 pM, 1 h pulse. On the procedure: Fetal bovine heart endothelial (FBHE) cells were cultured in DMEM supplemented with 10% FBS, 20 ng/ml acidic fibroblast growth factor, and 80 ng/ml basic fibroblast growth factor and passaged at subconfluence with trypsin-EDTA. To perform proliferation assays, the cells were plated at a density of 2×10^4 /well (24 well plates) in DMEM supplemented with 0.2% FBS. […] The fusion proteins were preincubated with the TGF-β for 15 min prior to addition to the cultures. At the completion of an incubation, the cultures were washed 3 times with serum-free DMEM and then allowed to incubate in DMEM with 0.2% FBS for 30 h. [^3 H]Thymidine was added for an additional 18 h; the cells were then harvested and [^3 H]thymidine incorporation was quantitated.

In experiment [3] the target is T3, TGF-β2 (Homo sapiens, UniProt P61812).
T3 construct: purchased Genzyme (Cambridge, Mass.)
T3 sequence (P61812 303-414 limits assumed): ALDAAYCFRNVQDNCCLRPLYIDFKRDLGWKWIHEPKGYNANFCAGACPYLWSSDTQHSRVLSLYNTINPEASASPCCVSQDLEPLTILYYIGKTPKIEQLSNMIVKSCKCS
In words: Ligand blot analysis of 125I-TGF-β2 binding to PVDF-immobilized proteins. To be noted: SDS-PAGE, PVDF membrane, 125I-TGF-β2 20 pM, 2 h at 25° C. How it is done:
as §1

The target of experiment [4] is T1, TGF-β1. In words: Ligand blot analysis of 125I-TGF-β1 binding to PVDF-immobilized proteins. To be noted: SDS-PAGE, PVDF membrane, 125I-TGF-β1, 2 h at 25° C. How it is done:
as §1

A further experiment addresses T4, NGF-β (Mus musculus, UniProt P01139).
T4 construct: from tissue; host or cells: male mouse submaxillary glands
The experiment is described as follows: Ligand blot analysis of 125I-NGF-β binding to PVDF-immobilized proteins. To be noted: SDS-PAGE, PVDF membrane, 125I-NGF-β 50 pM, 2 h at 25° C. On the procedure:
as §1

The target in experiment [5] is T3, TGF-β2. To be noted: read-out: KD for the binding of TGF-β2; cited from earlier work.
The target in experiment [6] is T3, TGF-β2. To be noted: previously reported in references 31 and 33; mean ± S.E., n=4; read-out: IC50, 125I-TGF-β2 binding to immobilized α2M-MA; cited from earlier work.
Experiment [7] has as its target T1, TGF-β1. In words: 125I-TGF-β1 binding to immobilized α2M-MA, solution-phase competition. To be noted: mean ± S.E., n=4; 1 h at 22° C. How it is done:
The wells were washed three times with PBS-T and blocked with PBS-T for 16 h at 4° C. […] In the presence of a fusion protein (FP) which binds TGF-β, the total concentration of TGF-β [βT ] was related to [βF ], at equilibrium, as follows: [βT ]=[βF ](1+[FP]/KI).

Like-named read-outs stand apart in the source and are kept apart here.

T1 sequence (P01137 279-390 limits assumed, species assumed): as the sequence (P01137 279-390 limits assumed) above
T4 sequence (P01139 122-239 limits assumed): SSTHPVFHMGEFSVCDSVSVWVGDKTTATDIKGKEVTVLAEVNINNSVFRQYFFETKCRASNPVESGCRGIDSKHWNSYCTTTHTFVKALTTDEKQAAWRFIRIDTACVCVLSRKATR

In general, IC50 refers to the concentration at which inhibition is half-maximal. “Thrombospondin: solution-phase inhibitor of TGF-β binding to immobilized α2M-MA [reference compound]”: in the experiment with TGF-β1 [1], the IC50 is 160 ± 18 nM.
For “TGF-β1: transforming growth factor-β1 from R&D Systems”, the “Inhibition of 125I-TGF-β1 binding to immobilized FP3” value in experiment [2] is recorded as 72±8%. Also, in the experiment with FBHE cells, the “Decrease of [3H]thymidine incorporation” value is 69%.
By Kd is commonly meant the free concentration of one partner at which half of the binding sites on the other are occupied at equilibrium, for simple one-to-one binding. With “α2 M: Human α2-macroglobulin, 718-kDa homotetrameric glycoprotein purified from plasma”, the “125I-TGF-β2 binding, ligand blot” value with TGF-β2 [3] is recorded as “bound”. Further, the “125I-TGF-β1 binding, ligand blot” value with TGF-β1 [4] was “bound”. Also, the “125I-NGF-β binding, ligand blot” value with NGF-β is “bound”. Besides, the equilibrium dissociation constant (Kd) with TGF-β2 [5] is 10 nM. Moreover, the IC50 with TGF-β1 [1] was 520 ± 39 nM; with TGF-β2 [6], 19 ± 3 nM.
Consider “α2 M monomer: prepared by exposing native α2M to 2 mM DTT under non-denaturing conditions”, for which the IC50 in the experiment with TGF-β1 [7] amounted to 360 ± 48 nM.

These data come from patent publication US6329500A, “Transforming growth factor-β binding site” (University of Virginia Patent Foundation, priority 1999, dated 2001).
